Series [1] has as its target T1, full-length MukB (wild type) (E. coli, UniProt P22523 1-1486).
T1 construct: MukB, E. coli, full length; also called WT MukB; unlabeled MukB; source: purified as described (Zawadzka et al., 2018)
T1 sequence (looked up): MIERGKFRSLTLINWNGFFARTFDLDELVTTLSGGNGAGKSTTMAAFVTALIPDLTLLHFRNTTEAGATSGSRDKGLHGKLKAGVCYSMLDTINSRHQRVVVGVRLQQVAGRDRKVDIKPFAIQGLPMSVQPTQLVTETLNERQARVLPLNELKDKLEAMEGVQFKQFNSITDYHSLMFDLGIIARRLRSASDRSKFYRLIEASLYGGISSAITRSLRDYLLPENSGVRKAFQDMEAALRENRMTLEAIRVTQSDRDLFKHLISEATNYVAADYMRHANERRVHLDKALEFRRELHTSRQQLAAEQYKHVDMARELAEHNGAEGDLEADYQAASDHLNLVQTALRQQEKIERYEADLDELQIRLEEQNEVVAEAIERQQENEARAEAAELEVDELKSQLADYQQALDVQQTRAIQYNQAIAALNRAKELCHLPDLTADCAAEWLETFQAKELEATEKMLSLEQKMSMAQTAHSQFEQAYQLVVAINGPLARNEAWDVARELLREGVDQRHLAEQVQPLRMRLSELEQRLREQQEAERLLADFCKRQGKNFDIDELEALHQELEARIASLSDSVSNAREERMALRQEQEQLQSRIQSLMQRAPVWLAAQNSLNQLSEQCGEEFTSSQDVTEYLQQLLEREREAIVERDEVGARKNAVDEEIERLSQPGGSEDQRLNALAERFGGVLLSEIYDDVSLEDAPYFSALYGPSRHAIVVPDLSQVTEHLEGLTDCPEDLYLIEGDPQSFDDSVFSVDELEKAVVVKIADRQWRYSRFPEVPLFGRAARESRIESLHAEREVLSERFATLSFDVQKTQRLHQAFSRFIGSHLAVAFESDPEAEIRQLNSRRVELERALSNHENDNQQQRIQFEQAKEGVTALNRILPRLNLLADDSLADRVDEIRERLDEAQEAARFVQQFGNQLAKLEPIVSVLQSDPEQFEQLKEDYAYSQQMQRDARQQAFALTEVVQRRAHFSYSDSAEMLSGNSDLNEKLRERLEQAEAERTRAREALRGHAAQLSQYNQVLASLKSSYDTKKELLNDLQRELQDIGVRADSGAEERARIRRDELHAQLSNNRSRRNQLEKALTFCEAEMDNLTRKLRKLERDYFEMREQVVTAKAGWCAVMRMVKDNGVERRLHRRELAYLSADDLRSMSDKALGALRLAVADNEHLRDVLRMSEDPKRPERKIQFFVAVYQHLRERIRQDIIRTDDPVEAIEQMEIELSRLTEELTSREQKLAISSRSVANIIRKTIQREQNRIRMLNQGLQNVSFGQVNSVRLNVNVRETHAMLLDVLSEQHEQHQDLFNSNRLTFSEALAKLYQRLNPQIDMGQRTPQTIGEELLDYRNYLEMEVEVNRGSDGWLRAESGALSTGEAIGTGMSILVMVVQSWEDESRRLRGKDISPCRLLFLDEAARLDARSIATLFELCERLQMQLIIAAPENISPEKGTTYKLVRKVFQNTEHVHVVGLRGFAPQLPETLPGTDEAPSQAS
Put plainly: fluorescence correlation spectroscopy (FCS); titration at constant 1 nM MatP-Cy3B; 20 mM Tris-HCl pH 7.5, 50 mM NaCl, 0.3 mg/mL BSA, 2 mM DTT, 0.05% Tween-20; 22 °C; fitted to the Hill equation. To be noted: both partners purified.

The target of series [2] is T2, full-length MukB^KKK (D697K D745K E753K) (E. coli, UniProt P22523 1-1486, D697K | D745K | E753K).
T2 construct: MukB, E. coli, full length, with three hinge substitutions
T2 sequence (looked up): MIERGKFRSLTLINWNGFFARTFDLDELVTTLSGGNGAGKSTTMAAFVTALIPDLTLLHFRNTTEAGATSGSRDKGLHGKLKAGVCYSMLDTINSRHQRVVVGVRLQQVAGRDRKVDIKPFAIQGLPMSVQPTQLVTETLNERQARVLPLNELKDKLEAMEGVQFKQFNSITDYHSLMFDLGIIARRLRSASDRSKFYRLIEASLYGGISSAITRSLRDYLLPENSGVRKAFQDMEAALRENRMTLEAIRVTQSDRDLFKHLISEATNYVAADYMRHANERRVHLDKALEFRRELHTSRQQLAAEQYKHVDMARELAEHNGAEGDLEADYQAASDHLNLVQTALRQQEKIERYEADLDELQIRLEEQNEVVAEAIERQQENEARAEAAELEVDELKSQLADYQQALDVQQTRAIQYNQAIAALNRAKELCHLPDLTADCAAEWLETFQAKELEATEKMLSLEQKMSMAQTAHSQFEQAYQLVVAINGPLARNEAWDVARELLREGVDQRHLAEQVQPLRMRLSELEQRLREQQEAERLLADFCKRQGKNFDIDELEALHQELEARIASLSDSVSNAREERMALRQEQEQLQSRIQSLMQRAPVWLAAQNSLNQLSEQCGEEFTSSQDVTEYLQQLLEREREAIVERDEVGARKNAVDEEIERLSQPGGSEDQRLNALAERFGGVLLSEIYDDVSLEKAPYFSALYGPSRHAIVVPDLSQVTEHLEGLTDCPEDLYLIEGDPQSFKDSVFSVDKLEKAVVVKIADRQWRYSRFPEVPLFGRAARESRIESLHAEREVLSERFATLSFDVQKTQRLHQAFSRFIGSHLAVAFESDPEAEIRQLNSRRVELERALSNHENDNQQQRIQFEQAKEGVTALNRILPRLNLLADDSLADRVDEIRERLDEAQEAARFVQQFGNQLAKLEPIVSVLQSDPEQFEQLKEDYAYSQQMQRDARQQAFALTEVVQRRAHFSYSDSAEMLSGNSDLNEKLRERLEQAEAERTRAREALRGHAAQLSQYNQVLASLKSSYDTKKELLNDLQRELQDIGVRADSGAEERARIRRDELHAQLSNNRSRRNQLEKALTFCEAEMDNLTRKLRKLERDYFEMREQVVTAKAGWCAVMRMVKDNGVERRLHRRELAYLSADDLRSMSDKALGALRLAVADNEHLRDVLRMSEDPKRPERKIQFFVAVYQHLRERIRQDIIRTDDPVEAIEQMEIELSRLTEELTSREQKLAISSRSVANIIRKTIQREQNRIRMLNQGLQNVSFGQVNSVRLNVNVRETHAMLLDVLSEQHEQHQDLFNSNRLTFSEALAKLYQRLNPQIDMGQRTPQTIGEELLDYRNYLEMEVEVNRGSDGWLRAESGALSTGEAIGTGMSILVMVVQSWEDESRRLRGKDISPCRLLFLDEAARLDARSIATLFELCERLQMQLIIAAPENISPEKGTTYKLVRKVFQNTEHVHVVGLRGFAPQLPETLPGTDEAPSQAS
Described as above. To be noted: both partners purified.

Series [3] concerns the molecule itself. Put plainly: native MS; proteins buffer exchanged into 200 mM ammonium acetate pH 8.0, alone or mixed in different ratios (two or three components, with or without 50 bp DNA), 10 min on ice.
The target of series [4] is T3, MukB long hinge (LH; amino acid residues 568–863) (E. coli, UniProt P22523 568-863).
T3 construct: MukB, E. coli, residues 568-863: dimeric globular hinge domain and 20% of the coiled-coil region; also called LH (MBP cleaved); LH2; source: NEBExpress cells (pMAL-c5X), purified (amylose, Factor Xa cleavage, HiTrap Q XL, SEC); not shown: MBP, N-terminal, cleaved
T3 sequence (looked up): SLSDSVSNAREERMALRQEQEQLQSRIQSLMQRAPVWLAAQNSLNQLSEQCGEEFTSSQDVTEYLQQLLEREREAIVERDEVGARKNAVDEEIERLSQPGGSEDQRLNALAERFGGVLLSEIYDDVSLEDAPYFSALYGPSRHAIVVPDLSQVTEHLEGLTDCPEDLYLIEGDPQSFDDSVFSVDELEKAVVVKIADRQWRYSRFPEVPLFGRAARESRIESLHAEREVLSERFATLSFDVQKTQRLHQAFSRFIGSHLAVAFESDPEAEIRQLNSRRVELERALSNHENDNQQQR
The description is as above. The conditions noted are these: both partners purified.

Series [5] concerns the target T3, MukB long hinge (LH; amino acid …). Put plainly: ITC; 100 µM MatP titrated into 10 µM LH at 25 °C; one-site model; three repeats. To be noted: both partners purified.
The target is the same in series [6]. Put plainly: native gel or EMSA; native PAGE; MatP or variants (7 µM) mixed with LH and/or 50 bp DNA at 1:1(:1), 30 min on ice; Coomassie and ethidium bromide staining. To be noted: both partners purified. (Mobility shift assays separate free from complexed probe on a gel.)
Series [7] deals with the molecule itself. Put plainly: native MS; proteins buffer exchanged into 200 mM ammonium acetate pH 8.0, alone or mixed in different ratios (two or three components, with or without 50 bp DNA), 10 min on ice. This is another data set of the same source.
In series [8] the target is T1, full-length MukB (wild type). Put plainly: fluorescence correlation spectroscopy (FCS); competition: MatP-Cy3B fixed at 1 nM, MukB at 400 nM; ParC variants at 10-fold, unlabeled MatP at 50-fold, DNA at 2.5-fold molar excess. The conditions noted are these: both partners purified.

Like-named read-outs stand apart in the source and are kept apart here.

Data on four molecules can be found in paper PMC8523169, “Competitive binding of MatP and topoisomerase IV to the MukB hinge domain” (eLife, 2021).

B1: Cy3B-labeled MatP-Cys-His (domain or fragment, E. coli)
chain: MKYQQLENLESGWKWKYLVKKHREGELITRYIEASAAQEAVDVLLSLENEPVLVNGWIDKHMNPELVNRMKQTIRARRKRHFNAEHQHTRKKSIDLEFIVWQRLAGLAQRRGKTLSETIVQLIEDAENKEKYSDPNSSSVDKLCAAALE
modifications: Cy3B maleimide on the single cysteine engineered into the C-terminal linker
notes: MatP, E. coli, residues 1-132 (MatPΔ18C); C-terminal linker between MatP and its 6xHis-tag with the engineered cysteine; Labeling efficiency 89%; also called MatP-Cy3B; Cy3B-MatP; source: purified as MatP, labeled with Cy3B maleimide, excess dye removed by SEC
For the molecule B1, the results for the Kd in series [1] and in series [2] were about 250 nM and about 1600 nM, respectively.

B2: MatPΔ18C (1–132), C-terminal 6xHis-tag (domain or fragment, E. coli, UniProt P0A8N0 1-132, looked up)
chain: MKYQQLENLESGWKWKYLVKKHREGELITRYIEASAAQEAVDVLLSLENEPVLVNGWIDKHMNPELVNRMKQTIRARRKRHFNAEHQHTRKKSIDLEFIVWQRLAGLAQRRGKTLSETIVQLIEDAENKEKY
notes: MatP, E. coli, residues 1-132 (deletion of the 18 C-terminal residues); also called MatPΔ18C-His; MatP2; source: overexpressed, purified as previously published (Nolivos et al., 2016) with an added SEC step; not shown: His6, C-terminal, kept
Turning to B2, the “stoichiometry N” value in series [3] is 2. In series [4], the “stoichiometry N” value was determined as 1 MatP dimer per LH dimer. For the same molecule, in series [5], binding was put at a Kd of 590 nM, the dH is -16.8 kcal/mol and the “stoichiometry N” value was found to be 0.96.

B3: MatP^4A (K71A, Q72A, R75A, and R77A) (domain or fragment, E. coli, UniProt P0A8N0 1-132, looked up)
chain: MKYQQLENLESGWKWKYLVKKHREGELITRYIEASAAQEAVDVLLSLENEPVLVNGWIDKHMNPELVNRMAATIAAARKRHFNAEHQHTRKKSIDLEFIVWQRLAGLAQRRGKTLSETIVQLIEDAENKEKY
notes: MatP, E. coli, residues 1-132 (MatPΔ18C) with four substitutions; source: site-directed mutagenesis, purified using the same protocol as MatP
For the molecule B3, the binding result in series [6] was “binds”. In addition, the “stoichiometry N” value in series [7] came to 2.

B4: full-length ParC, N-terminal 6xHis-tag (enzyme, E. coli, UniProt P0AFI2 1-752, looked up)
chain: MSDMAERLALHEFTENAYLNYSMYVIMDRALPFIGDGLKPVQRRIVYAMSELGLNASAKFKKSARTVGDVLGKYHPHGDSACYEAMVLMAQPFSYRYPLVDGQGNWGAPDDPKSFAAMRYTESRLSKYSELLLSELGQGTADWVPNFDGTLQEPKMLPARLPNILLNGTTGIAVGMATDIPPHNLREVAQAAIALIDQPKTTLDQLLDIVQGPDYPTEAEIITSRAEIRKIYENGRGSVRMRAVWKKEDGAVVISALPHQVSGARVLEQIAAQMRNKKLPMVDDLRDESDHENPTRLVIVPRSNRVDMDQVMNHLFATTDLEKSYRINLNMIGLDGRPAVKNLLEILSEWLVFRRDTVRRRLNYRLEKVLKRLHILEGLLVAFLNIDEVIEIIRNEDEPKPALMSRFGLTETQAEAILELKLRHLAKLEEMKIRGEQSELEKERDQLQGILASERKMNNLLKKELQADAQAYGDDRRSPLQEREEAKAMSEHDMLPSEPVTIVLSQMGWVRSAKGHDIDAPGLNYKAGDSFKAAVKGKSNQPVVFVDSTGRSYAIDPITLPSARGQGEPLTGKLTLPPGATVDHMLMESDDQKLLMASDAGYGFVCTFNDLVARNRAGKALITLPENAHVMPPVVIEDASDMLLAITQAGRMLMFPVSDLPQLSKGKGNKIINIPSAEAARGEDGLAQLYVLPPQSTLTIHVGKRKIKLRPEELQKVTGERGRRGTLMRGLQRIDRVEIDSPRRASSGDSEE
notes: ParC subunit of topoisomerase IV, E. coli, full length; also called His-ParC; ParC2; source: overexpressed, purified as previously published (Nolivos et al., 2016) with an added SEC step; not shown: His6, N-terminal, kept
B4: the “stoichiometry N” value in series [3] was 2. Also, in series [8], the “fold decrease in MatP-Cy3B binding to MukB at 10-fold excess of competitor” value was determined as 3 fold.

In general, Kd refers to the free concentration of one partner at which half of the binding sites on the other are occupied at equilibrium, for simple one-to-one binding. Lower therefore signals a tighter complex. As a reminder, the stoichiometry N is a count of units in the complex or per binding partner.
